The values that follow are results of earlier work, collected in PMC8300624.

Read-outs that look alike come from different tables or passages of the source.

In series [1] the target is ASK1 TBD (Homo sapiens) (UniProt Q99683).
Series [2] has the same target. The source holds these as a separate data set.

Sequence of Thioredoxin 1 (P10599 2-105): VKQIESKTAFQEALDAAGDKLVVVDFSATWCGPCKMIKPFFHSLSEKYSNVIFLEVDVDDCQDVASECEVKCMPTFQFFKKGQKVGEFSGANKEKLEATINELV
Sequence of ASK1 TBD (Homo sapiens) (Q99683 88-302): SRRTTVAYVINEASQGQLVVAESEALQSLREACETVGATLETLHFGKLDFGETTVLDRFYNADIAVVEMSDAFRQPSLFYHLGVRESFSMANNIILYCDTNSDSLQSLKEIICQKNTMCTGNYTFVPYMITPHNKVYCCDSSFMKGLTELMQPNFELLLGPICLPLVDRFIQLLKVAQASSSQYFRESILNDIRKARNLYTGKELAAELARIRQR

Take Thioredoxin 1 (from UniProt P10599): the dissociation constant (Kd) with ASK1 TBD (Homo sapiens) [1] is 300 nM; with ASK1 TBD (Homo sapiens) [2], 4000 nM.
